# In patent publication US12371675B2, “Process and microorganism for synthesis of adipic acid from carboxylic acids” (THE GOVERNING COUNCIL OF THE UNIVERSITY OF TORONTO, priority 2015, dated 2025):
# B1: MSMEG_2956: carboxylate reductase (CAR) from M. smegmatis ATCC 700084 (protein)
# chain: MTIETREDRFNRRIDHLFETDPQFAAARPDEAISAAAADPELRLPAAVKQILAGYADRPALGKRAVEFVTDEEGRTTAKLLPRFDTITYRQLAGRIQAVTNAWHNHPVNAGDRVAILGFTSVDYTTIDIALLELGAVSVPLQTSAPVAQLQPIVAETEPKVIASSVDFLADAVALVESGPAPSRLVVFDYSHEVDDQREAFEAAKGKLAGTGVVVETITDALDRGRSLADAPLYVPDEADPLTLLIYTSGSTGTPKGAMYPESKTATMWQAGSKARWDETLGVMPSITLNFMPMSHVMGRGILCSTLASGGTAYFAARSDLSTFLEDLALVRPTQLNFVPRIWDMLFQEYQSRLDNRRAEGSEDRAEAAVLEEVRTQLLGGRFVSALTGSAPISAEMKSWVEDLLDMHLLEGYGSTEAGAVFIDGQIQRPPVIDYKLVDVPDLGYFATDRPYPRGELLVKSEQMFPGYYKRPEITAEMFDEDGYYRTGDIVAELGPDHLEYLDRRNNVLKLSQGEFVTVSKLEAVFGDSPLVRQIYVYGNSARSYLLAVVVPTEEALSRWDGDELKSRISDSLQDAARAAGLQSYEIPRDFLVETTPFTLENGLLTGIRKLARPKLKAHYGERLEQLYTDLAEGQANELRELRRNGADRPVVETVSRAAVALLGASVTDLRSDAHFTDLGGDSLSALSFSNLLHEIFDVDVPVGVIVSPATDLAGVAAYIEGELRGSKRPTYASVHGRDATEVRARDLALGKFIDAKTLSAAPGLPRSGTEIRTVLLTGATGFLGRYLALEWLERMDLVDGKVICLVRARSDDEARARLDATFDTGDATLLEHYRALAADHLEVIAGDKGEADLGLDHDTWQRLADTVDLIVDPAALVNHVLPYSQMFGPNALGTAELIRIALTTTIKPYVYVSTIGVGQGISPEAFVEDADIREISATRRVDDSYANGYGNSKWAGEVLLREAHDWCGLPVSVFRCDMILADTTYSGQLNLPDMFTRLMLSLVATGIAPGSFYELDADGNRQRAHYDGLPVEFIAEAISTIGSQVTDGFETFHVMNPYDDGIGLDEYVDWLIEAGYPVHRVDDYATWLSRFETALRALPERQRQASLLPLLHNYQQPSPPVCGAMAPTDRFRAAVQDAKIGPDKDIPHVTADVIVKYISNLQMLGLL
# B2: EC5625: OYE protein from Escherichia coli K12 (protein)
# chain: MSSEKLYSPLKVGAITAANRIFMAPLTRLRSIEPGDIPTPLMAEYYRQRASAGLIISEATQISAQAKGYAGAPGIHSPEQIAAWKKITAGVHAENGHMAVQLWHTGRISHASLQPGGQAPVAPSALSAGTRTSLRDENGQAIRVETSMPRALELEEIPGIVNDFRQAIANAREAGFDLVELHSAHGYLLHQFLSPSSNHRTDQYGGSVENRARLVLEVVDAGIEEWGADRIGIRVSPIGTFQNTDNGPNEEADALYLIEQLGKRGIAYLHMSEPDWAGGEPYTDAFREKVRARFHGPIIGAGAYTVEKAETLIGKGLIDAVAFGRDWIANPDLVARLQRKAELNPQRAESFYGGGAEGYTDYPTL
# B3: MAP_1040c: carboxylate reductase (CAR) from M. paratuberculosis ATCC BAA-968 (protein)
# chain: MSTATHDERLDRRVHELIATDPQFAAAQPDPAITAALEQPGLRLPQIIRTVLDGYADRPALGQRVVEFVTDAKTGRTSAQLLPRFETITYSEVAQRVSALGRALSDDAVHPGDRVCVLGFNSVDYATIDMALGAIGAVSVPLQTSAAISSLQPIVAETEPTLIASSVNQLSDAVQLITGAEQAPTRLVVFDYHPQVDDQREAVQDAAARLSSTGVAVQTLAELLERGKDLPAVAEPPADEDSLALLIYTSGSTGAPKGAMYPQSNVGKMWRRGSKNWFGESAASITLNFMPMSHVMGRSILYGTLGNGGTAYFAARSDLSTLLEDLELVRPTELNFVPRIWETLYGEFQRQVERRLSEAGDAGERRAVEAEVLAEQRQYLLGGRFTFAMTGSAPISPELRNWVESLLEMHLMDGYGSTEAGMVLFDGEIQRPPVIDYKLVDVPDLGYFSTDRPHPRGELLLRTENMFPGYYKRAETTAGVFDEDGYYRTGDVFAEIAPDRLVYVDRRNNVLKLAQGEFVTLAKLEAVFGNSPLIRQIYVYGNSAQPYLLAVVVPTEEALASGDPETLKPKIADSLQQVAKEAGLQSYEVPRDFIIETTPFSLENGLLTGIRKLAWPKLKQHYGERLEQMYADLAAGQANELAELRRNGAQAPVLQTVSRAAGAMLGSAASDLSPDAHFTDLGGDSLSALTFGNLLREIFDVDVPVGVIVSPANDLAAIASYIEAERQGSKRPTFASVHGRDATVVRAADLTLDKFLDAETLAAAPNLPKPATEVRTVLLTGATGFLGRYLALEWLERMDMVDGKVIALVRARSDEEARARLDKTFDSGDPKLLAHYQQLAADHLEVIAGDKGEANLGLGQDVWQRLADTVDVIVDPAALVNHVLPYSELFGPNALGTAELIRLALTSKQKPYTYVSTIGVGDQIEPGKFVENADIRQMSATRAINDSYANGYGNSKWAGEVLLREAHDLCGLPVAVFRCDMILADTTYAGQLNLPDMFTRLMLSLVATGIAPGSFYELDADGNRQRAHYDGLPVEFIAAAISTLGSQITDSDTGFQTYHVMNPYDDGVGLDEYVDWLVDAGYSIERIADYSEWLRRFETSLRALPDRQRQYSLLPLLHNYRTPEKPINGSIAPTDVFRAAVQEAKIGPDKDIPHVSPPVIVKYITDLQLLGLL
# B4: MSMEI_5586: carboxylate reductase (CAR) from M. smegmatis ATCC 700084 (protein)
# chain: MHQLTVTGMNICEVQRLFPRMTSDVHDATDGVTETALDDEQSTRRIAELYATDPEFAAAAPLPAVVDAAHKPGLRLAEILQTLFTGYGDRPALGYRARELATDEGGRTVTRLLPRFDTLTYAQVWSRVQAVAAALRHNFAQPIYPGDAVATIGFASPDYLTLDLVCAYLGLVSVPLQHNAPVSRLAPILAEVEPRILTVSAEYLDLAVESVRDVNSVSQLVVFDHHPEVDDHRDALARAREQLAGKGIAVTTLDAIADEGAGLPAEPIYTADHDQRLAMILYTSGSTGAPKGAMYTEAMVARLWTMSFITGDPTPVINVNFMPLNHLGGRIPISTAVQNGGTSYFVPESDMSTLFEDLALVRPTELGLVPRVADMLYQHHLATVDRLVTQGADELTAEKQAGAELREQVLGGRVITGFVSTAPLAAEMRAFLDITLGAHIVDGYGLTETGAVTRDGVIVRPPVIDYKLIDVPELGYFSTDKPYPRGELLVRSQTLTPGYYKRPEVTASVFDRDGYYHTGDVMAETAPDHLVYVDRRNNVLKLAQGEFVAVANLEAVFSGAALVRQIFVYGNSERSFLLAVVVPTPEALEQYDPAALKAALADSLQRTARDAELQSYEVPADFIVETEPFSAANGLLSGVGKLLRPNLKDRYGQRLEQMYADIAATQANQLRELRRAAATQPVIDTLTQAAATILGTGSEVASDAHFTDLGGDSLSALTLSNLLSDFFGFEVPVGTIVNPATNLAQLAQHIEAQRTAGDRRPSFTTVHGADATEIRASELTLDKFIDAETLRAAPGLPKVTTEPRTVLLSGANGWLGRFLTLQWLERLAPVGGTLITIVRGRDDAAARARLTQAYDTDPELSRRFAELADRHLRVVAGDIGDPNLGLTPEIWHRLAAEVDLVVHPAALVNHVLPYRQLFGPNVVGTAEVIKLALTERIKPVTYLSTVSVAMGIPDFEEDGDIRTVSPVRPLDGGYANGYGNSKWAGEVLLREAHDLCGLPVATFRSDMILAHPRYRGQVNVPDMFTRLLLSLLITGVAPRSFYIGDGERPRAHYPGLTVDFVAEAVTTLGAQQREGYVSYDVMNPHDDGISLDVFVDWLIRAGHPIDRVDDYDDWVRRFETALTALPEKRRAQTVLPLLHAFRAPQAPLRGAPEPTEVFHAAVRTAKVGPGDIPHLDEALIDKYIRDLREFGLI
# Experiments:
# [1] = CAR reductase activity, NADPH oxidation at 340 nm; type: biochemical; conditions: ND = no activity was detected
# Procedure: Reductase activity was measured spectrophotometrically by following the oxidation of NADPH depletion at 340 nm.
# It has been shown that the N. iowensis CAR has a broad substrate range, though its maximal activity was usually observed with aromatic substrates such as benzoic and cinnamic acids. CARs gene sequences homologues to the N. iowensis CAR (Uniprot number: Q6RKB1), were selected from GenBank database. Based on presence of adenylation (AMP-binding PF00501) and reduction (NAD-binding PF07993) domains accompanied with phosphopantetheinyl binding motif (PF00530) 13 CAR genes (mostly from Mycobacterium) were cloned and expressed in E. coli. (Table 4). As CAR activation enzymes, phosphopantetheinyl transferases (PPTs) from E. coli (P19925) and Bacillus subtilis (P39135), were used which were co-expressed with the selected CAR genes from a separate plasmid. Using 1-liter E. coli cultures with overnight induction by IPTG, 12 soluble CAR proteins were purified using affinity chromatography on a Ni-NTA resin.
# [2] = In vitro biotransformation by CARs coupled with aldehyde reductase PP_3370; type: biochemical; conditions: Table 12 title: 10 mM 4-hydroxybutyric acid (12 h) in vitro, CARs coupled with PP3370
# [3] = as above; type: biochemical; conditions: Table 12 title: 10 mM adipic acid (12 h) in vitro, CARs coupled with PP3370
# [4] = In vivo whole cell biotransformation by E. coli expressing CARs; type: cell-based; conditions: 24 h; for In vivo conversion efficiency (%) to: 1,4-butanediol: 10 mM 4-hydroxybutyric acid; for In vivo conversion efficiency (%) to: 1,6-hexanediol / In vivo conversion efficiency (%) to: 6-hydroxyhexanoic acid: 10 mM adipic acid
# Procedure: E. coli cells expressing recombinant CARs with BSU03570 phosphopantetheinyl transferase were grown on LB media with […], supplemented with 2% glycerol aerobically on 37° C., until the culture optical density (OD 600 nm) reached 0.6-0.8. At this point protein expression was induced with 0.4 mM IPTG and substrate (adipic acid or 4-hydroxybutyric acid) for final 10 mM concentration was added. Samples were taken at 6 h, 24 h and 48 h, centrifuged, supernatant was filtered through 10 kDa centrifugal filters. Products were analyzed with HPLC or LC-MS. Negative control experiments were performed using E. coli cells harboring empty plasmids. All results of in vivo experiments are means from at least two independent determinations.
# [5] = OYE hydrogenation activity screen, NADPH oxidation at 340 nm; type: biochemical; conditions: 1 mM substrate, 0.25 mM NADPH, 2.5 μg protein; cut-off 0.05 U/mg protein; ND = not detected
# Procedure: 25 putative OYE genes (Table 1) were cloned based on the Pfam domain of the FMN oxidoreductase family PF00724. Purified OYEs were screened for hydrogenation activity against acrolein, 2-cyclohexn-1-one, cis,cis-muconic acid, trans,trans-muconic acid, and 2-hexendioic acid. Substrate specificity was measured spectrophotometrically in 96-well plates by following incubation for 20 min at room temperature in the anaerobic chamber. Buffers and reagents were also degassed and sparged with Ar. Reaction mixtures contained potassium phosphate (50 mM and pH 7.0), NaCl (10 mM), NADPH (0.25 mM), various substrates (1 mM) and protein (2.5 μg) in a final volume of 200 μL. Enzyme reactions were monitored by following the decrease in absorbance at 340 nm (ε340 nm=6,200/M·cm) as a measure of the conversion of the cofactor NADPH to NADP+.
# [6] = Whole-cell biotransformation with E. coli strains over-expressing OYEs; type: cell-based; conditions: E. coli over-expressing OYE
molecule,measurement,setting,value
B1,"Activity [U/mg protein] adipic acid, 5 mM",[1],0.078 ± 0.001 U/mg protein
same,"In vivo conversion efficiency (%) to: 1,4-butanediol",[2],59.4 ± 7.3%
same,"In vitro conversion efficiency % to: 1,6-hexanediol",[3],27.7 ± 10.3%
same,In vitro conversion efficiency % to: 6-hydroxyhexanoic acid,[3],34.2 ± 9.1%
same,"In vivo conversion efficiency (%) to: 1,4-butanediol",[4],59.4 ± 7.3%
same,"In vivo conversion efficiency (%) to: 1,6-hexanediol",[4],27.7 ± 10.3%
same,In vivo conversion efficiency (%) to: 6-hydroxyhexanoic acid,[4],34.2 ± 9.1%
B2,Activity [U/mg protein] 2-cyclohexen-1-one,[5],0.18 U/mg protein
same,hydrogenation of 2-hexenedioic acid into adipic acid,[6],no hydrogenation
B3,"Activity [U/mg protein] 4-hydroxybutyric acid, 5 mM",[1],0.014 ± 0.006 U/mg protein
same,"Activity [U/mg protein] adipic acid, 5 mM",[1],0.053 ± 0.006 U/mg protein
same,"In vivo conversion efficiency (%) to: 1,4-butanediol",[2],81.6 ± 18.3%
same,"In vitro conversion efficiency % to: 1,6-hexanediol",[3],15.4 ± 1.7%
same,In vitro conversion efficiency % to: 6-hydroxyhexanoic acid,[3],5.8 ± 0.2%
same,"In vivo conversion efficiency (%) to: 1,4-butanediol",[4],81.6 ± 18.3%
same,"In vivo conversion efficiency (%) to: 1,6-hexanediol",[4],15.4 ± 1.7%
same,In vivo conversion efficiency (%) to: 6-hydroxyhexanoic acid,[4],5.8 ± 0.2%
B4,"Activity [U/mg protein] 4-hydroxybutyric acid, 5 mM",[1],0.058 ± 0.033 U/mg protein
same,"Activity [U/mg protein] adipic acid, 5 mM",[1],0.017 ± 0.005 U/mg protein
same,"In vivo conversion efficiency (%) to: 1,4-butanediol",[2],78.4 ± 6.2%
same,"In vitro conversion efficiency % to: 1,6-hexanediol",[3],10.2 ± 3.4%
same,In vitro conversion efficiency % to: 6-hydroxyhexanoic acid,[3],30.3 ± 0.4%
same,"In vivo conversion efficiency (%) to: 1,4-butanediol",[4],78.4 ± 6.2%
same,"In vivo conversion efficiency (%) to: 1,6-hexanediol",[4],10.2 ± 3.4%
same,In vivo conversion efficiency (%) to: 6-hydroxyhexanoic acid,[4],30.3 ± 0.4%
